Reference: the nanobody polyreactivity screen of Harvey et al. (2022)

Assay: yeast display, Sf9 membrane polyspecificity reagent, FACS + sequencing; frameworks hold sequencing errors
Summary of the method: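 In a synthetic yeast display library (Saccharomyces cerevisiae BJ5465), nanobody expression was induced with galactose for 36–48 hours. FACS gates were set low and high (top ~1%) using anti-HA fluorescence for expression and streptavidin fluorescence for binding of the Sf9 membrane reagent. Each polyreactivity label is drawn from the gate of origin.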

| Sequence | polyreactivity (PSR sort gate) |
| --- | --- |
| QVQLVESGGGLVQAGGSLRLSCAASGSNFQYVYAMGWYRQAPGKERELVAAINGGSGSTYYADSVKGSFTISRDNAKNTVYLQMNSLKPEDTAVYYCNRDYEYPTYPHDYWGQGTQVTVSS | low polyreactivity |
| QVQLVESGGGLVQAGGSLRLSCAASGSNFRGYTMGWYRQAPGKERELVAAISLSGGSTYYADSVKGRFTISRDNAKNTVYLQMNSLKPEDTAVYYCAASLPWYDEFDYWGQGTQVTVSS | low polyreactivity |
| QVQLVESGGGLVQAGGSLRLSCAASGSNFRYNAMGWYRQAPGKERALVAAISGRGTSTYYADSVKGRFTISRDNAKNTVYLQMNSLKPEDTAVYYCAAVYFRTFLVEYYYWGQGTQVTVSS | high polyreactivity |
| QVQLVESGGGLVQAGGSLRLSCAASGSNFRYYAMGWDRQAPGKERELVAAISYSGGTTYYADSVKGRFTISRDNAKNTVYLQMNSLKPEDTAVYYCAVPLIGVDGYAYDYWGQGTQVTVSS | low polyreactivity |
| QVQLVESGGGLVQAGGSLRLSCAASGSNFSPNAMGWYRQAPGKERELVAAIDTRDGTTYYADSVKGRFTISRDNAKNTVYLQMNSLKPEDTAVYYCAAGGPVRYGIATPTGAKRFGYWGQGTQVTVSS | low polyreactivity |
| QVQLVESGGGLVQAGGSLRLSCAASGSNFTFYAMGWYRQAPGKERELVAAISKGGDRTYYADSVKGRFTISRDNAKNTVYLQMNSLKPEDTAVYYCARLVRPGRFGDGDYWGQGTQVTVSS | low polyreactivity |
| QVQLVESGGGLVQAGGSLRLSCAASGSNFWRNVMGWYRQAPGKERELVAAISSGGSTYYADSVKGRFTISRDNAKNTVYLQMNSLKPEDTEVYYCAAPRYDYWGQGTQVTVSS | high polyreactivity |
| QVQLVESGGGLVQAGGSLRLSCAASGSNFWSNAMRWYRQAPGKERELVATIDDDVGSTYYADSVKGRFTISRDNAKNTVYFQMNSLKPEDTAVYYCAADTSGADAYTKVRDGYDYWGQGTQVSVSS | low polyreactivity |
| QVQLVESGGGLVQAGGSLRLSCAASGSNFYDYAMGWYRQAPGKERELVAAISSGGGTYYADSVKGRFTISRDNAKNTVYLQMNSLKPEDTAVYYCNADTYEWFSDFSEDSYDYWGQGTQVTVSS | low polyreactivity |
| QVQLVESGGGLVQAGGSLRLSCAASGSNFYPYTMGWYRQAPGKERELVAAISGGGRTYYADSVKGRFTISRDNAKNTVFLQMNSLNPEDTAVYYCAARYVYRWLVGKYEYWGQGTQVTLSS | high polyreactivity |
| QVQLVESGGGLVQAGGSLRLSCAASGSNFYQYAMGWYRPAPRKERELVAAISVRAGITYYADSVTGRFTISRDNAKYTVYLQMNSLKPEDTAVYYCAKDHWTTSYDEGDYWGQGTQVTVSS | low polyreactivity |
| QVQLVESGGGLVQAGGSLRLSCAASGSNFYSYAMGWYRQAPGKESELVAAITKSSGSTYYAASVKGRFTISRDYAKNTVYLQMNSLKPEDTAVYYCAATRYRPVRLYYWGQGTQVTVSS | high polyreactivity |
| QVQLVESGGGLVQAGGSLRLSCAASGSNFYVYAMGCYRQAPGKERELVAAINYDSGSTYYADSVKGRFTISRDTAKNTVYLQMNSLIPEDTAVYYCGTDGVNPFYAYDYWGQGTQVTVSS | low polyreactivity |
| QVQLVESGGGLVQAGGSLRLSCAASGSNFYVYAMLWYRQAPGKERELVADITTRDGDTYYADSVKGRFTISRDNAKNTVYLQMNSLKPEDTAVYYCAADLNAYPLRAYDYWGQGTQVTVSS | low polyreactivity |
| QVQLVESGGGLVQAGGSLRLSCAASGSNFYYKAMGWYRQAPGKERELVAAITSGDSTNYADSVKGRFTISRDNAKNTVYLQMNSLKPEDTAVYYCAADYLAALTYYRTYDYWGQGTQVTVSS | low polyreactivity |
| QVQLVESGGGLVQAGGSLRLSCAASGSNIATYAMGWYRQAPWKETELVAAISSTGRTYYADSVKGRFTISRDNAKNTVYLQMTRLKPVDTAVYYCNTVRYRSRYGMDYWGQGTQVTVSS | high polyreactivity |

| Sequence | polyreactivity (PSR sort gate) |
| --- | --- |
| QVQLVESGGGLVQAGGSLRLSCAASGSNIERNAMGWYIQAPGKERELVANITWSGVSTYYADSVKGRFTISRDNAKNTVYLQMNSLKPEDTAVYYCNADYSYRHWYDPGQYGQAMGYWGQGTQVTVSS | low polyreactivity |
| QVQLVESGGGLVQAGGSLRLSCAASGSNIFQYDMGWYRQAPGKERELVAAITISGGSTYYADSVKGRFTISRDNAKNTVYLQLNILKPEDTAVYYCNADYEWYLGGYDYWGQGTQVTVSS | high polyreactivity |
| QVQLVESGGGLVQAGGSLRLSCAASGSNLPYYAMGWYRQAPVKERELVAAISYSGGSTYYADSVKGRFTISRDNAKNPVFLQMYSLKPEVTAVYDCNAVVRSPAHGFWGQCTQVTVSS | high polyreactivity |
| QVQLVESGGGLVQAGGSLRLSCAASGSNLVQNAMGWYRQAPGKERELVAAINWSGASTYYADSVKGRFTISRDNAKNTVYLQMNSLKPEDTAVYYCATVTLFFTDYYSWADVYTEYDYWGQGTQVTVSS | low polyreactivity |
| QVQLVESGGGLVQAGGSLRLSCAASGSNMGDNGMGWYRKAPGKERELVAAITNGGSTTYADSVKGRFTISRDNAKNTVYLQMNSLKPEDTAVYYCAADQQDRDQYSDWTEYDYWGQGTQVTVSS | low polyreactivity |
| QVQLVESGGGLVQAGGSLRLSCAASGSNYRNAMGWYRQAPGKERELVAAISSSGGRTYYADSVKGRFTISRDNAKNTVYLKMNSLKPEDTAVYYCAKVGPYWSRGKYWGQGTQVTVSS | high polyreactivity |
| QVQLVESGGGLVQAGGSLRLSCAASGSPFFPYAMGGYRQAPGKERELVAGISSDGGTSYADSVKGRFTISRDNAKNTVYLQMNSLKPEDTAVYYCAKETIGQDPVSGAWARHEYDYWGQGTQVTVSS | low polyreactivity |
| QVQLVESGGGLVQAGGSLRLSCAASGSPFKRYAMGWYRQAPGKERELVASITRRGGSTYYADSVKGRFTISRDNAKNTVYLKMNSLKPEDSAVYYCAALQGRSSARQDSYGYWGQGTQVTVSS | high polyreactivity |
| QVQLVESGGGLVQAGGSLRLSCAASGSPFYNYAMGWYRQAPGKERELVAAIRNGGGTNYADSVKGRFTISRDNAKNTVYLQMNSLKPEDTAVYDCNKAYGVSGTGVDYWGQGTQVTVSS | low polyreactivity |
| QVQLVESGGGLVQAGGSLRLSCAASGSSFAENAMGWSRQAPGKERELVATIRSGGSTYADSVKGRFTISRDNAKKTVNLQMNILKPEDTAVYYCATDRYPHSATPGDYWGQGTQVTVSS | low polyreactivity |
| QVQLVESGGGLVQAGGSLRLSCAASGSSFGSNAMGWSRPAPGKERELVAAITGGDVSTYYADSVKGRFTISRDNAKNTVYLQMNSLKPEDTAVYYCNAEYARPAMDYWGQGTQVTVSS | low polyreactivity |
| QVQLVESGGGLVQAGGSLRLSCAASGSSFGYYAMGWYRPAPGKERELVAAITRRGVNTYYADSVKGRFTISRDNAKNTVYLQMNSLKPEDTAVYYCAATWWQYAQGLHRYDYWGQGTQVTVSS | high polyreactivity |
| QVQLVESGGGLVQAGGSLRLSCAASGSSFPENAMGWYRQAPGKERQLVAGISRSDAGTHYADSVKGRFTISRDNAKNTVYVQMNSLKPEDTAVYYFDAGGTDEDRLTSWVGLFPAYYYWGQATQVTVSS | low polyreactivity |
| QVQLVESGGGLVQAGGSLRLSCAASGSSFSRNAMGWYRQAPGKESELVAAISWSGGRTYYAASVKGRFTISRDNAKNTVYLQMNSLKPEDTAVYYCAKGYSYHWYHVTYYSLGQGTQVTVSS | high polyreactivity |
| QVQLVESGGGLVQAGGSLRLSCAASGSSFSSYAMGRYRQAPAKERELVASNNIGGSTNYADSVKGRFTISRDNAKITVYLHMNSLKPEDTAVYSCNAVGYNVGGEGDYWGQGTQVTVSS | high polyreactivity |
